The source of these data is PMC10653388.

This test concerns the target endogenous S. cerevisiae TREX complex (S. cerevisiae) (UniProt P17629). The experiment in a line: negative-stain EM.

For orientation: stoichiometry N means a count of units in the complex or per binding partner. As for “endogenous S. cerevisiae TREX complex, P17629;P53552;P33441;O13539;P53851;Q07478;Q12159;P25555;P38922”, the stoichiometry N was 2.
